This passage reports binding result and binding signal results from patent publication US20140107188, “USE OF HGMA-TARGETED PHOSPHOROTHIOATE DNA APTAMERS TO SUPPRESS CARCINOGENIC ACTIVITY AND INCREASE SENSITIVITY TO CHEMOTHERAPY AGENTS IN HUMAN CANCER CELLS” (Miami University, published 2014).

Series [1] has as its target T1, HMGA1b (full length) (UniProt P17096-2 P17096-2:1-96). As to the kind of experiment: EMSA; nearly completely shifted at DNA:HMGA1 1:1.5; 25 mM Tris-HCl pH 6.5, 50 mM NaCl, 4 C. To be noted: tags: expressed from pET-30b in E. coli BL21(DE3); TCA precipitation and Sephadex G-25; label: 5'-6-FAM. As for the experimental part:
(§1) The HMGA protein samples were prepared in 25 mM Tris-HCl (pH 6.5), 50 mM NaCl, and the concentrations determined based on UV […] absorbance (ε=38,200 mol-1 cm-1). […] Nature structural biology 4 (1997) 657-665, the disclosure of which is incorporated herein by reference in its entirety and incubated at 4° C. for 15 minutes prior to gel analysis. The protein-DNA complexes were resolved on a 7.5% polyacrylmide gel and run with TAE buffer at 20 mA for 2-3 hours at 4° C. The DNA was detected at 495 nm using the VersaDoc™ Imaging System Model 3000 from BIO-RAD Laboratories, Inc. of Hercules, Calif. (USA). The gels were further stained with coomassie blue and visualized by an AlphaImager (Alpha Innotech, San Leandro, Calif.).

Series [2] concerns the target T1, HMGA1b (full length). As to the kind of experiment: competition; equal amount did not interfere with HMGA1-ATf10 complex; 1:1 ATf10:HMGA1. To be noted: tags: expressed from pET-30b in E. coli BL21(DE3); TCA precipitation and Sephadex G-25. As to the method: as §1
The target of series [3] is T1, HMGA1b (full length). As to the kind of experiment: competition; about half of ATf10 displaced at 1:1 ATf10:ATs10; similar affinity to unmodified DNA. The conditions noted are these: tags: expressed from pET-30b in E. coli BL21(DE3); TCA precipitation and Sephadex G-25. As for the experimental part: as §1

T1 sequence (P17096 other isoform, or with tags, fused parts or gaps): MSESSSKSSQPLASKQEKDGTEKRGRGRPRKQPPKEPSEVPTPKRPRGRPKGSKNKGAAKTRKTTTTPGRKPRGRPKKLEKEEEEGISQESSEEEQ

B1: ATf10 (dsDNA)
DNA 1: CGCGGGGCCGCCGCGAAAAAAAAAAACCC
DNA 2: GGGTTTTTTTTTTTCGCGGCGGCCCCGCG
B1: the binding result with HMGA1b (full length) [1] is recorded as “binds”.

B2: Mix10 (dsDNA)
DNA 1: GGGCGTGACTGAGCGCGGCGGCCCCGCG
DNA 2: CGCGGGGCCGCCGCGCTCAGTCACGCCC
Regarding B2, the binding result with HMGA1b (full length) [2] was “no binding”.

B3: ATs10 (dsDNA)
DNA 1: GGGTTTTTTTTTTCGCGGCGGCCCCGCG
DNA 2: CGCGGGGCCGCCGCGAAAAAAAAAACCC
modifications: PS at the T10 tract linkages of the printed strand (GGGT*T*T*T*T*T*T*T*T*T*CGCG..); complementary strand unmodified
B3 came in with a binding signal with HMGA1b (full length) [3] of about 1 fold affinity vs ATf10.

B4: CG10 (dsDNA)
DNA 1: GGGCCCCCCCCCCCGCGGCGGCCCCGCG
DNA 2: CGCGGGGCCGCCGCGGGGGGGGGGGCCC
In the case of B4, the binding result in the series with HMGA1b (full length) [2] is “no binding”.
